Experimental data: patent publication US20250090699A1, “FAP TARGETING CYCLIC PEPTIDES AND CONJUGATES THEREOF” (Novartis AG, priority 2023, published 2025)
Read-outs that look alike come from different tables or passages of the source. Starred links: 1 amine or outer side, 2 acyl side, 3 side chain; linkers in the order of their positions; H or OH if unused. Positions of bridges follow the written chain, without caps; N, C: chain ends. Non-standard residues stand in square brackets, D forms with d. Residues, ends and D or L forms follow the SMILES beside them. Groups on a side chain read outwards from the residue. Chains are numbered I, II in the order given. *: point of attachment. F(4amPEG2NHDOTA-Lu) = lutetium complex of (S)-2,2',2''-(10-(1-(4-(2-amino-2-carboxyethyl)phenyl)-3,12-dioxo-5,8-dioxa-2,11-diazatridecan-13-yl)-1,4,7,10-tetraazacyclododecane-1,4,7-triyl)triacetic acid (Phe with 4-aminomethyl-PEG2-DOTA-Lu), O=C([O-])CN1CCN(CC(=O)[O-])CCN(CC(=O)NCCOCCOCC(=O)NCc2ccc(C[C@H](N[*:1])C(=O)[*:2])cc2)CCN(CC(=O)[O-])CC1.[Lu+3]; F4(amMeGlyDOTALu) = lutetium complex of (S)-2,2',2''-(10-(2-((2-((4-(2-amino-2-carboxyethyl)benzyl)amino)-2-oxoethyl)(methyl)amino)-2-oxoethyl)-1,4,7,10-tetraazacyclododecane-1,4,7-triyl)triacetic acid (Phe with 4-aminomethyl-N-methyl-Gly-D, CN(CC(=O)NCc1ccc(C[C@H](N[*:1])C(=O)[*:2])cc1)C(=O)CN1CCN(CC(=O)[O-])CCN(CC(=O)[O-])CCN(CC(=O)[O-])CC1.[Lu+3]; F(4OEtNHDOTA-Lu) = lutetium complex of (S)-2,2',2''-(10-(2-((2-(4-(2-amino-2-carboxyethyl)phenoxy)ethyl)amino)-2-oxoethyl)-1,4,7,10-tetraazacyclododecane-1,4,7-triyl)triacetic acid (Phe with 4-O-ethylamino-DOTA-Lu), O=C([O-])CN1CCN(CC(=O)[O-])CCN(CC(=O)NCCOc2ccc(C[C@H](N[*:1])C(=O)[*:2])cc2)CCN(CC(=O)[O-])CC1.[Lu+3]; X2 = O=C(O)CN1CCN(CC(=O)O)CCN(CC(=O)NC(CC(=O)NCCOCCOCCOCC(=O)[*:1])CC(=O)NCCOCCOCCOCC(=O)[*:2])CCN(CC(=O)O)CC1; Q(Pyrro(2CN4F2)) = 2-amino-5-(2-cyano-4,4-difluoropyrrolidin-1-yl)-5-oxopentanoic acid; COpipzaa = 4-(carboxymethyl)piperazine-1-carbonyl, O=C(O)CN1CCN(C(=O)*)CC1; DOTA(Lu) = O=C1CN2CCN3CCN(CC(=O)*)CCN(CC2)CC(=O)[O][Lu]([O]1)[O]C(=O)C3; hS(Pr) = O-propyl-L-homoserine, CCCOCC[C@H](N[*:1])C(=O)[*:2]; Piperazinyl(4-CH2COOH) = O=C(O)CN1CCN(*)CC1; AEF = NCCOc1ccc(C[C@H](N)C(=O)O)cc1; NMeF = CN[C@@H](Cc1ccccc1)C(=O)O; Ahp(2) = CCCCC[C@H](N)C(=O)O; CO = O=C([*:1])[*:2]

How the values were obtained:
[1] = biological target: T1, human FAP (Homo sapiens, UniProt Q12884); test: Surface plasmon resonance (SPR) for peptide affinity, human FAP; format: binding; conditions: read-out: h. FAP, SPR, KD
T1 construct: the biotinylated His, Avi tag, human FAP (26-760, FAP-H82Q6); His; Avi tag (biotinylated); purchased AcroBiosystems FAP-H82Q6
T1 sequence (Q12884 26-760): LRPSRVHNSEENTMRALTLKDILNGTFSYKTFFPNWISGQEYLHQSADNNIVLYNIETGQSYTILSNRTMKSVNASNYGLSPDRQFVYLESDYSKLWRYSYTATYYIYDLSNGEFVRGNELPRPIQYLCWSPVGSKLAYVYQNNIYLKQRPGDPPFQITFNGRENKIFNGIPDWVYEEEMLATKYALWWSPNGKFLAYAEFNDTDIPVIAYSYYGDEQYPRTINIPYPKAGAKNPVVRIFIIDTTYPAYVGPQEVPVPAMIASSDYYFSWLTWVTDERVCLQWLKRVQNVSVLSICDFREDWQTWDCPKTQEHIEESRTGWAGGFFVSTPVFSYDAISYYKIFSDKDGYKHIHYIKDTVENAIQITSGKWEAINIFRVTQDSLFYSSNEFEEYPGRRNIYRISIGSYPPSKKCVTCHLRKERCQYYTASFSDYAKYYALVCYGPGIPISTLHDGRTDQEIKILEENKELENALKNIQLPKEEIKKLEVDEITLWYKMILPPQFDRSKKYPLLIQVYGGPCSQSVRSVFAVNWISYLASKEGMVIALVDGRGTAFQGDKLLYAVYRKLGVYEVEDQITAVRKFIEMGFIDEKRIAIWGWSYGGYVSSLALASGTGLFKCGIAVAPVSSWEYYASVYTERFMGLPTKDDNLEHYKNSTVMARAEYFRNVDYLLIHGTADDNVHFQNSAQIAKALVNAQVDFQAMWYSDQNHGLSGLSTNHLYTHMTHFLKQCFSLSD
Procedure: Peptide affinities (KD) were determined by SPR using a Biacore™ 8K device (Cytiva) towards the following proteins: biotinylated His, Avi tag, human FAP (26-760, FAP-H82Q6), biotinylated His, Avi tag, mouse FAP (26-761, FAP-M82Q5), His tag, human DPP4 (34-766, DP4-H82E3), all purchased from AcroBiosystems and His tag, mouse DPP4 (29-760, 954-SE) from R&D Systems. The FAP proteins and their homologous were diluted to a concentration of 2 μg/mL into acetate buffer pH 5.5, then immobilized onto a CM5 sensorchip (Cytiva, BR-1005-30) to reach a response around 2000 R U. The running buffer HBS-EP+pH 7.6 (20× from Teknova CAT. No: H8022) contained 10 mM HEPES pH 7.6, 150 mM NaCl, 3 mM EDTA, 0.05% Tween20 and 2% DMSO. Experiments were carried out at 25° C. using a flow rate of 30 μL/min. Compounds were tested in single cycle kinetic mode at 8 different concentrations. Curve fitting was performed using the Biacore™ 8K evaluation software. The sensorgrams were fitted by applying a 1:1 binding model to calculate kinetic rate constants and equilibrium dissociation constants (KD).
For this assay, the setup had the same conditions (flow rate, running buffer, peptide dilution) as described above for the CM5 method. The oligo CAP reagent obtained in the CAPture Kit (Ref. 28920234) was 1/5 diluted into running buffer and used with a contact time of 300 s at a flow rate of 2 μL/min. The human and mouse FAP constructs described above were used (from AcroBiosystems or produced in house). The FAP proteins were diluted to a concentration of 2 μg/mL into acetate pH 5.5, 0.05% Tween20 and used with a contact time of 600 s at a flow rate of 10 μL/min. The peptides were tested with an association time of 280 s followed by a dissociation time of 3000 s at a flow rate of 30 μL/min. The regeneration was done using the regeneration solution (8 M guanidine-HCl, 1 M NaOH) as obtained with a contact time of 270 s at a flow rate of 10 μL/min. […] The compounds marked with an asterisk were tested against human and mouse DDP4.

[2] = biological target: T2, mouse FAP (Mus musculus, UniProt P97321); test: Surface plasmon resonance (SPR) for peptide affinity, mouse FAP; format: binding
T2 construct: biotinylated His, Avi tag, mouse FAP (26-761, FAP-M82Q5); His; Avi tag (biotinylated); purchased AcroBiosystems FAP-M82Q5
T2 sequence (P97321 26-761): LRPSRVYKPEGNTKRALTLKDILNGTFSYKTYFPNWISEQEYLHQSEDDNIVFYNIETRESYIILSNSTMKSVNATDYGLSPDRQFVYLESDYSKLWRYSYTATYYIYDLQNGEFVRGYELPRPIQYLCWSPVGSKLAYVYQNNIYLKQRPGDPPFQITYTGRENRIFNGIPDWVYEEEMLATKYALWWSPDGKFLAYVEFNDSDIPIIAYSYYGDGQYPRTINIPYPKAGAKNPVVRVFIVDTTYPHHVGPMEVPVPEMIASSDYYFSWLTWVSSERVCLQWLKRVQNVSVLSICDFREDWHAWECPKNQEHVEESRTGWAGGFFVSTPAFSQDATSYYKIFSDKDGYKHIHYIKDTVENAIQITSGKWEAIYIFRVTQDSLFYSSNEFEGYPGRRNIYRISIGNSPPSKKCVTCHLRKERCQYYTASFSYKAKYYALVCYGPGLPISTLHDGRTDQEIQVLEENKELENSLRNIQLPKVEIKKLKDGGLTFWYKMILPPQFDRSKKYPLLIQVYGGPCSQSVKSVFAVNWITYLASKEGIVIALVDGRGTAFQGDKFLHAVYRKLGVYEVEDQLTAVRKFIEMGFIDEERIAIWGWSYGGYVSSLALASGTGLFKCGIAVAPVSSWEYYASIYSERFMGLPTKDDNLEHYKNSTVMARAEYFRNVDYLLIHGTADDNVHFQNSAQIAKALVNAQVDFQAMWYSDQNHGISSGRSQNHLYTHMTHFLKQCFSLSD
Method in brief: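 Biotinylated His/Avi-tagged FAP ectodomains (human 26-760, mouse 26-761) captured or immobilized on Biacore sensor chips; peptides run at 25 °C in HBS-EP+ pH 7.6 with 2% DMSO, single-cycle kinetics, 8 concentrations. KD from 1:1 binding-model fit of sensorgrams.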

[3] = biological target: T1, human FAP; test: Enzymatic FAP competition assay (Z-Gly-Pro-AMC fluorescence), human FAP; format: biochemical; conditions: read-out: h. FAP, Enz., IC50
Method in brief: (§1)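 Biotinylated His/Avi-tagged FAP ectodomain (human 26-760, mouse 26-761) at 0.01 nM, preincubated 24 h with peptides (14 concentrations, up to 1 μM) in pH 7.5 phosphate, 150 mM NaCl, 0.05% Tween20, 1% DMSO. Then 50 μM Z-Gly-Pro-AMC, 4 h at 22-24° C; AMC fluorescence (380/460 nm) gave IC50 from duplicate points.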

[4] = biological target: T2, mouse FAP; test: Enzymatic FAP competition assay (Z-Gly-Pro-AMC fluorescence), mouse FAP; format: biochemical; conditions: read-out: m. FAP, Enz., IC50
Method in brief: as §1

| Kd [1] | Kd [2] | IC50 [3] | IC50 [4] | Kd ([2]; values marked ** : including further experimental repetition) | Compound |
| --- | --- | --- | --- | --- | --- |
| 0.32 nM | 0.51 nM | 0.38 nM | 1.1 nM | – | CCCCC[C@@H]1NC(=O)[C@H](Cc2ccc(OCCNC(=O)COCCOCCOCCNC(=O)CC(CC(=O)NCCOCCOCCOCC(=O)NCCOc3ccc(C[C@@H]4NC(=O)[C@H](Cc5ccccc5)N(C)C(=O)CNC(=O)[C@H](CCCCNC(=O)N5CCN(CC(=O)O)CC5)NC(=O)[C@H]5CCCN5C(=O)[C@H](CC(=O)O)NC(=O)[C@H](Cc5ccc(O)cc5)NC(=O)CNC(=O)[C@H](Cc5c[nH]c6ccccc56)NC(=O)[C@H](CCCCC)NC4=O)cc3)NC(=O)CN3CCN(CC(=O)O)CCN(CC(=O)O)CCN(CC(=O)O)CC3)cc2)NC(=O)[C@H](Cc2ccccc2)N(C)C(=O)CNC(=O)[C@H](CCCCNC(=O)N2CCN(CC(=O)O)CC2)NC(=O)[C@H]2CCCN2C(=O)[C@H](CC(=O)O)NC(=O)[C@H](Cc2ccc(O)cc2)NC(=O)CNC(=O)[C@H](Cc2c[nH]c3ccccc23)NC1=O [Example M4] (I: cyclo(K([CO-Piperazinyl(4-CH2COOH)])G[NMeF][AEF][Ahp(2)]WGYD[dP]) / II: cyclo(K([CO-Piperazinyl(4-CH2COOH)])G[NMeF][AEF][Ahp(2)]WGYD[dP]); linker I:4-II:4 via X2) |
| 0.004 nM | 0.006 nM | 0.007 nM | 0.012 nM | – | Gly-Gly-NMePhe-F4(amMeGlyDOTALu)-Ahp-Trp-Gly-Tyr-Asp-D-Pro (cyclo(GG[NMeF][F4(amMeGlyDOTALu)][Ahp(2)]WGYD[dP]); also: Lu complex) [Example C8] |
| < 0.011 nM | 0.024 nM | 0.004 nM | 0.011 nM | – | Gly-Gly-NMePhe-F(4amPEG2NHDOTA-Lu)-Ahp-Trp-Gly-K(COpipzaa)-Asp-D-Pro (cyclo(GG[NMeF][F(4amPEG2NHDOTA-Lu)][Ahp(2)]WGK(COpipzaa)D[dP]); also: Lu complex) [Example C13] |

The next lines start with the compound.

| Compound | Kd [1] | Kd [2] | IC50 [3] | IC50 [4] | Kd ([2]; values marked ** : including further experimental repetition) |
| --- | --- | --- | --- | --- | --- |
| Gly-Gly-NMePhe-F(4OEtNHDOTA-Lu)-Ahp-Trp-Gly-Tyr-Asp-D-Pro (cyclo(GG[NMeF][F(4OEtNHDOTA-Lu)][Ahp(2)]WGYD[dP]); also: Lu complex of DOTA) [Example C23] | < 0.009 nM | < 0.011 nM | 0.016 nM | 0.061 nM | < 0.06 nM |
| Gly-Gly-NMePhe-F(4amPEG2NHDOTA-Lu)-Q(Pyrro(2CN4F2))-Trp-Gly-K(COpipzaa)-Asp-D-Pro (cyclo(GG[NMeF][F(4amPEG2NHDOTA-Lu)][Q(Pyrro(2CN4F2))]WGK(COpipzaa)D[dP]); also: Lu complex) [Example C19] | < 0.018 nM | < 0.04 nM | 0.018 nM | 0.031 nM | – |
| Gly-Gly-NMePhe-F(4amPEG2NHDOTA-Lu)-hS(Pr)-Trp-Gly-K(COpipzaa)-Asp-D-Pro (cyclo(GG[NMeF][F(4amPEG2NHDOTA-Lu)][hS(Pr)]WGK(COpipzaa)D[dP]); also: Lu complex) [Example C2] | < 0.008 nM | < 0.036 nM | 0.009 nM | 0.023 nM | – |
| Lys(DOTA-Lu)-Gly-NMePhe-Tyr-Ahp-Trp-Gly-Tyr-Asp-D-Pro (cyclo(K(DOTA(Lu))G[NMeF]Y[Ahp(2)]WGYD[dP]); also: Lu complex) [Example C22] | 0.41 nM | 0.64 nM | 0.43 nM | 1.1 nM | – |
